The target of the test is T1, His-RecA WT, activated as RecA* (nucleoprotein filament on ssDNA with ATPγS) (E. coli, UniProt P0A7G6 1-353).
T1 chain: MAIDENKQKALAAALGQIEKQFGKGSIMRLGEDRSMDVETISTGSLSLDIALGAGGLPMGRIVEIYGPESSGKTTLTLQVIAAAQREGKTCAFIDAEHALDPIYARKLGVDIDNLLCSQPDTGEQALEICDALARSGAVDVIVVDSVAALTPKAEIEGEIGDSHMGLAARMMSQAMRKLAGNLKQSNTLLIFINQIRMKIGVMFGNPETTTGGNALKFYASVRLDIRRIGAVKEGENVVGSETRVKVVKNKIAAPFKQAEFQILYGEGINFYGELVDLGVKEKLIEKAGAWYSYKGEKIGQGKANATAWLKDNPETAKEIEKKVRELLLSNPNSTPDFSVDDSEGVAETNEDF
Briefly: FP; competition against LexA-δ.

Substitutions are numbered along the chain they refer to. Numbers in names are those of the source.

The IC50 is the point on the concentration scale where inhibition reaches its midpoint. A lower IC50 goes with greater potency in that assay.

B1: LexA quad-mutant (QM): L89P, Q92W, E152A, K156A (natural protein)
chain: MKALTARQQEVFDLIRDHISQTGMPPTRAEIAQRLGFRSPNAAEEHLKALARKGVIEIVSGASRGIRLLQEEEEGLPLVGRVAAGEPLPAQWHIEGHYQVDPSLFKPNADFLLRVSGMSMKDIGIMDGDLLAVHKTQDVRNGQVVVARIDDAVTVARLKKQGNKVELLPENSEFKPIVVDLRQQSFTIEGLAVGVIRNGDWL
Molecule B1 yielded a half-maximal inhibitory concentration (IC50) of 3800 nM.

B2: His-LexA K156A (natural protein)
chain: B1 chain with P89L, W92Q, A152E
Take B2: the IC50 turned out to be 500 nM.
